Experiments:
[1] = target: STAM(300-387) of ESCRT-0 core construct b (human) (UniProt Q92783); assay: SDS-PAGE and mass spectrometry of dissolved crystals
[2] = target: recombinant full-length human STAM of the full-length ESCRT-0 complex (human) (UniProt Q92783); assay: SEC-MALS
[3] = target: recombinant full-length human STAM of the full-length ESCRT-0 complex (human) (UniProt Q92783); assay: AUC

Chain of recombinant full-length human STAM of the full-length ESCRT-0 complex (human) (Q92783 whole entry, one chain of several): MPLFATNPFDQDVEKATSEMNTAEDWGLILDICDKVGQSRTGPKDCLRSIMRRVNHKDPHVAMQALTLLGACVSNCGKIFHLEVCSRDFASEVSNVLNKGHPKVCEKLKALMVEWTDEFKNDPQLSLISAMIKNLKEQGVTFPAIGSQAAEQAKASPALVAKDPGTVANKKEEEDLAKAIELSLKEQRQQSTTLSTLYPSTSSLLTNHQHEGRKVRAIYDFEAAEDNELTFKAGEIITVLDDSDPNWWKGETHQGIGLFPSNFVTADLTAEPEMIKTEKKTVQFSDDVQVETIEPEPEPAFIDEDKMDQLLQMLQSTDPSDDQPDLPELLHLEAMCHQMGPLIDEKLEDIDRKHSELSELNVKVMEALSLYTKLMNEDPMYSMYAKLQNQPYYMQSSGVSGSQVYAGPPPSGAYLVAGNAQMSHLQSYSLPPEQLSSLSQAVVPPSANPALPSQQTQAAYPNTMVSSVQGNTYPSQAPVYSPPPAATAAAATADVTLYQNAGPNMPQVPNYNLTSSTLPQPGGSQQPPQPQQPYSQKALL
Chain of Hrs(398-557) of ESCRT-0 core construct b (O14964 398-514): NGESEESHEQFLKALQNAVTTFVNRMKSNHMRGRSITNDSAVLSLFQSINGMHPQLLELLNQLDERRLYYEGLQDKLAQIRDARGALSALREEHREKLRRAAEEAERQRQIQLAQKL

In the case of “Hrs(398-557) of ESCRT-0 core construct b (from UniProt O14964 398-557) (domain or fragment)”, the stoichiometry N [1] is reported as 1 Hrs:STAM.

In the case of “recombinant full-length Hrs (mouse Hrs gene) of the full-length ESCRT-0 complex (from UniProt Q99LI8 1-775) (natural protein)”, the stoichiometry N [2] is reported as 1 Hrs:STAM and the stoichiometry N [3] is reported as 1 Hrs:STAM.

— PMC2676576
